Data on 15 molecules can be found in patent US20200239537A1 (GOVERNORS OF THE UNIVERSITY OF ALBERTA, published 2020).

*1 amine or outer side, *2 acyl side, *3 side chain or, on linkers, in order; H or OH if unused. Where no end group is shown, it is not given here. [ ]: non-standard residue; d: D form. The star is where a group is joined. azaArg = aza-arginine, alpha-carbon replaced by nitrogen, N=C(N)NCCCN(N[*:1])C(=O)[*:2]; Phe(4-Br) = N[C@@H](Cc1ccc(Br)cc1)C(=O)O; azaLeu = CC(C)CN(N[*:1])C(=O)[*:2]; Palmitoyl = CCCCCCCCCCCCCCCC(=O)*; αMeR = C[C@](N)(CCCNC(=N)N)C(=O)O; NMeL = CN[C@@H](CC(C)C)C(=O)O; αMeL = CC(C)C[C@](C)(N)C(=O)O; Nle = CCCC[C@H](N)C(=O)O; Aib = CC(C)(N)C(=O)O

T1: recombinant human APJ receptor (Chem-5-APJ cells) (human, UniProt P35414 1-380)
T1 sequence (looked up): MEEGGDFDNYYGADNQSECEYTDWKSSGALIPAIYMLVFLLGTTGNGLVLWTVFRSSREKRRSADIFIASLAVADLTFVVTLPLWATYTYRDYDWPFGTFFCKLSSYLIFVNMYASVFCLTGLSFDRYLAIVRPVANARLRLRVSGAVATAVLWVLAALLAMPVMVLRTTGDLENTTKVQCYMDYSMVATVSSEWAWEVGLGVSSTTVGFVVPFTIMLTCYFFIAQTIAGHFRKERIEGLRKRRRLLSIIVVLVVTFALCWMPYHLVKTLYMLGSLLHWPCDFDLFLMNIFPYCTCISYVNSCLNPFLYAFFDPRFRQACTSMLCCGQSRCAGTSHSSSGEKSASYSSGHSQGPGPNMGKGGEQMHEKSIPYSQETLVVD

T2: wild-type rat apelin receptor tagged at its C-terminus with EGFP (rat, UniProt Q9JHG3 1-377)
T2 construct: whole, on cells; Used as crude membrane preparations from CHO cells stably expressing the receptor; also called wild-type rat apelin receptor-EGFP; not shown: EGFP tag at the C-terminus
T2 sequence (looked up): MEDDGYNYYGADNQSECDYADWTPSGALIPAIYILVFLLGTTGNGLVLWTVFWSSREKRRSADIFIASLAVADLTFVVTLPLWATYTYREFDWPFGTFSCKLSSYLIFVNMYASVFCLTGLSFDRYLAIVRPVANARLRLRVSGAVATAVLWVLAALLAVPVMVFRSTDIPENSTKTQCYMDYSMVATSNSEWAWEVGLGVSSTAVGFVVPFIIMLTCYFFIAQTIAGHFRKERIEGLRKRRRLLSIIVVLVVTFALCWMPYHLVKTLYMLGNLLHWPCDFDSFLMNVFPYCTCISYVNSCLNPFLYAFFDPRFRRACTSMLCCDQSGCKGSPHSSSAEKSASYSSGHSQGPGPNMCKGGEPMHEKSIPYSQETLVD

B1: apelin-17 A2 (5) (peptide)
peptide: KFRRQRPRLSHKGP[Nle][Aib][Phe(4-Br)]
notes: Synthetic ACE2-resistant analogue; also called parent peptide 5
B2: PEG-NMe17A2 (59) (peptide)
peptide: KFRRQRPR[NMeL]SHKGP[Nle][Aib][Phe(4-Br)]
modifications: not fully specified (N-terminus); numbers in words are those of the source; also: N-terminal PEG from Fmoc-(PEG)6 propionic acid, Fmoc removal not given here
B3: pyr-1-apelin-13 A2 (4) (peptide)
peptide: XRPRLSHKGPXXX
modifications: pGlu at 1; Nle at 11; Aib at 12; paraBrPhe at 13
notes: Synthetic ACE2-resistant analogue; also called parent peptide 4; none (A2)
B4: apelin-17 (2) (peptide)
peptide: KFRRQRPRLSHKGPMPF
notes: Native isoform; apelin residues 61-77; also called native apelin-17; native isoform 2

The first assay has as its target T1, recombinant human APJ receptor …. Kind of assay: cell-based or functional assay.
As to RQRPR[NMeL]SHKGP[Nle][Aib][Phe(4-Br)] [Apelin-NMe14A2 (55)], the “EC50 of Ca2+ mobilization, fold against the 17-mers” value is about 200 fold.
Consider RQRPRLSHKGP[Nle][Aib][Phe(4-Br)] [Apelin-14A2 (54)], for which the “EC50 of Ca2+ mobilization, fold against the 17-mers” value was about 200 fold.

A further assay has the same target. Kind of assay: cell-based or functional assay. This is another data set of the same source.
RQRPR[NMeL]SHKGP[Nle][Aib][Phe(4-Br)] [Apelin-NMe14A2 (55)]: the “EC50 (nM), Ca2+ mobilization assay” value was found to be 176 nM.
The same measure, in the same setting: to Palmitoyl-KFRRQRPR[NMeL]SHKGP[Nle][Aib][Phe(4-Br)] [PALM-NMe17A2 (58)] belongs 11.3 nM; to RQRPRLSHKGP[Nle][Aib][Phe(4-Br)] [Apelin-14A2 (54)], 568 nM.
As to B1, the “EC50 (nM), Ca2+ mobilization assay” value amounted to 4 nM.
As to B2, the “EC50 (nM), Ca2+ mobilization assay” value was determined as 2.5 nM.
As for KFRRQRPRLSHKGP[Nle][Aib][Phe(4-Br)] (not fully specified (N-terminus); also: Fmoc removal from PEG not given here) [PEG-17A2 (57)], the “EC50 (nM), Ca2+ mobilization assay” value amounted to 6.3 nM.
Still for that read-out and setting: to Palmitoyl-KFRRQRPRLSHKGP[Nle][Aib][Phe(4-Br)] [PALM-17A2 (56)] belongs 2.6 nM.

In a further assay the target is T2, wild-type rat apelin receptor tagged at …. The experiment in a line: displacement of 0.2 nM [125I]-pyr-1-apelin-13; membranes of CHO cells expressing rat apelin receptor-EGFP. How it is done:
This experiment evaluated the ability of peptides of the present embodiments to bind to the wild-type rat apelin receptor, in order to examine the impact of synthetic modification within the critical RPRL motif of the apelin peptides.
The reaction was stopped by adding 4 mL of cold binding buffer, filtered on Whatman GF/C filters and washed with 5 mL of cold binding buffer. Radioactivity was then counted using a Wizard 1470 Wallac gamma counter (Perkin Elmer, Turku, Finland). Binding experiment data were analyzed with GraphPad Prism.
As usually defined, the Ki is the equilibrium dissociation constant of an inhibitor or competing ligand from its target. Low values mean tighter binding, high ones weaker binding. On to KFRRQRPR[NMeL]SHKGP[Nle][Aib][Phe(4-Br)] (also called Apelin-NMe17A2; NMeLeu-17A2) [N-MeLeu9-apelin-17 A2 (11)], for which the Ki is 0.45 nM and the “times less potent than native 2” value is about 3 fold.
B3: the Ki was 2 nM and the “factor of weaker affinity compared to 1” value was determined as 6 fold.
In the case of B1, the Ki amounted to 0.19 nM.
Turning to KFRRQRPR[dL]SHKGP[Nle][Aib][Phe(4-Br)] [D-Leu9-apelin-17 A2 (9)], the Ki turned out to be 0.14 nM and the “times less potent than native 2” value is about 3 fold.
In the case of KFRRQRP[αMeR]LSHKGP[Nle][Aib][Phe(4-Br)] (also called α-MeArc8-apelin-17 A2) [α-MeArg8-apelin-17 A2 (13)], the Ki amounted to 0.13 nM and the “times less potent than native 2” value is about 3 fold.
The corresponding values for KFRRQRPR[azaLeu]SHKGP[Nle][Aib][Phe(4-Br)] [azaLeu9 apelin-17 A2 peptide (19)] are 0.15 nM and about 3 fold.
With B4, the affinity corresponds to a Ki of 0.053 nM.
Regarding KFRRQRP[azaArg]LSHKGP[Nle][Aib][Phe(4-Br)] [azaArg8-apelin-17 A2 (17)], the Ki turned out to be 0.14 nM and the “times less potent than native 2” value is about 3 fold.
The matching figures for KFRRQRPR[αMeL]SHKGP[Nle][Aib][Phe(4-Br)] [α-MeLeu9-apelin-17 A2 (15)]: 0.18 nM and about 3 fold.
